Measured values taken from patent US20200061153A1 (BAYLOR COLLEGE OF MEDICINE, published 2020).

Assays:
[1] = target: T1, soluble recombinant human vimentin (srhVim), full length, expressed from pET30 in E. coli (human, UniProt P08670 2-466); assay: ELISA, wells coated with PSGL-1/Fc 10 µg/mL, srhVim added at rising concentrations, detection with anti-His/HRP
T1 construct: also called full length vimentin; full-length Vimentin; not shown: His tag from pET30 (Ni2+ purification, anti-His detection)
Description: The observations in these experiments, in certain embodiments, are attributed to srhVim either affecting P-selectin, PSGL-1, or both. ELISA was performed by coating 96-well plates with either PSGL-1/Fc protein (10 μg/mL), P-selectin/Fc protein (10 μg/mL), or BSA (10 μg/mL) and adding various concentrations of srhVim to each well. Detection was through anti-His/HRP antibodies. Increasing amounts of srhVim bound to P-selectin/Fc protein and reached saturation at 20 μg/mL. There was no binding of srhVim to PSGL-1/Fc (FIG. 6B).

[2] = target: T2, recombinant human vimentin (rhVim), expressed from pQE-30 in E. coli M15 (human, UniProt P08670 2-466); assay: ELISA, wells coated with PSGL-1/Fc 10 µg/mL in DPBS, blocked with 1% BSA, rhVim added at rising concentrations, detection with HRP-conjugated anti-polyhistidine antibody
T2 construct: also called pQE-30-hVim product; not shown: polyhistidine tag from pQE-30 (Ni2+ purification, anti-polyhistidine detection)
Description: rhVim binding assay—To determine which proteins to which rhVim binds, we performed enzyme linked immunosorbent assays (ELISA) as we described (Da, et al., 2014). Immunoplate wells were coated overnight at 4° C. with P-selectin/Fc or PSGL-1/Fc (10 μg/ml in DPBS). Wells were washed with DPBS and then blocked with 1% BSA for one hour. After blocking, rhVim was added in increasing concentrations and detected using a HRP-conjugated anti-polyhistidine antibody. Tetramethylbenzidine solution was used as the substrate and the reactions were stopped using 1 N sulfuric acid. All ELISA measurements were performed in duplicate and the data reported were averaged from two separate experiments performed.
The effect of rhVim blocking PMN adhesion to P-selectin could be attributed to rhVim either affecting P-selectin, PSGL-1, or both. Therefore, ELISAs were performed with wells coated either PSGL-1/Fc protein (10 μg/mL) or P-selectin/Fc protein (10 μg/mL) and incubated with increasing concentrations of rhVim to each well. Increasing amounts of rhVim bound to P-selectin/Fc protein and reached saturation at 20 μg/mL. There was no binding of rhVim to PSGL-1/Fc at any concentration (FIG. 15C).

T1 sequence (P08670 2-466): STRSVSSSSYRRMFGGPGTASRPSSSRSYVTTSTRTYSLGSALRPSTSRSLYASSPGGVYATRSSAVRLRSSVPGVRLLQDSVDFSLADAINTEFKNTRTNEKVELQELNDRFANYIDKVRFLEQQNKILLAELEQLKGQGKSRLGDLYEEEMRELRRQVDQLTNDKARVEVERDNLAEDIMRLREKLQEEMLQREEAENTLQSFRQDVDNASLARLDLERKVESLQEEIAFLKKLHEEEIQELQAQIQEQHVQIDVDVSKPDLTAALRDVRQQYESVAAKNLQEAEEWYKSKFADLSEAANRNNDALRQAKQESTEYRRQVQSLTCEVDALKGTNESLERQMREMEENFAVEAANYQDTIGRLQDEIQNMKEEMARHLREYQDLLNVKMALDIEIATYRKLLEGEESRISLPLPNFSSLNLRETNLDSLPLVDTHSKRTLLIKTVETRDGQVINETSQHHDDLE
T2 sequence (P08670 2-466): as above

binding result [1]: no binding (tested: 40 µg/mL)
binding result [2]: no binding (tested: 40 µg/mL)
B1: PSGL-1/Fc protein (Fc fusion, UniProt Q14242 42-295, looked up)
chain: QATEYEYLDYDFLPETEPPEMLRNSTDTTPLTGPGTPESTTVEPAARRSTGLDAGGAVTELTTELANMGNLSTDSAAMEIQTTQPAATEAQTTQPVPTEAQTTPLAATEAQTTRLTATEAQTTPLAATEAQTTPPAATEAQTTQPTGLEAQTTAPAAMEAQTTAPAAMEAQTTPPAAMEAQTTQTTAMEAQTTAPEATEAQTTQPTATEAQTTPLAAMEALSTEPSATEALSMEPTTKRGLFIPFSVSSVTHKG
notes: Bought from R & D Systems; the species is not clearly stated; not shown: Fc part
